Laboratory results as given in the DeepSol protein solubility set.

Experiment: soluble on expression in E. coli; label from the status in PepcDB or PDB records

| Sequence | soluble on expression in E. coli |
| --- | --- |
| MGSDKIHHHHHHMEQKICVIGFSGGQDSTTLAVWAKKRFKKVCLVGFDYAQKHSVELECAQKIASLLQLPYEIIPLDFLENITRSALFKNSNDLIGHSHAQNKDLPNSFVPNRNAIFITLLHSYAQKLGASNIALGVSQADFSGYPDCKEDFIKSIEHALNLGSNTAIKILTPLMFLNKAQEFQMAKDLGVLDLVIKETHTCYQGERKILHAYGYGCDKCPACQLRKKGFEEFQANKK | not soluble |
| GYMDLMPFINKAGCECLNESDEHGFDNCLRKDTTFLESDCDEQLLITVAFNQPVKLYSMKFQGPDNGQGPKYVKIFINLPRSMDFEEAERSEPTQALELTEDDIKEDGIVPLRYVKFQNVNSVTIFVQSNQGEEETTRISYFTFIGTPVQATNMNDFK | soluble |
| MDTLRYLTGYPPAVLEQVRALIAQDKLGAVLAQRYPERHTVRTDRQLYDYVKEMKERYMRSSPTLHKAIYDNHLQVVKHALGTHTAISRVHGSRLKASREIRIAAIFRDAPAPFLQMIVAHELAHLKEPEHDKAFYQLCHHMAPDYHQLEFDLRLYLTQLALSPRDLEHHHHHH | soluble |
| MIQHTMLKLYWANFTTAQLHHLTSTYPDFLSENVFHQHDMIKRWLTERNSERLWNKYERFKELKLMDIIKEMKKANVSFTTYFDDNYPSLCKEMYDYPYVIFYKGNPQFFNHSHSLAVIGSRNATQYTSQSLNYLFPSFRQLNMAIVSGLARGADSVAHQTALKYLLPTIGVLGFGHCYHYPKATLNLRTKVERNGLVISEYPPFSPISKHKFPERNRLISGLSRGVLITEAEERSGSQITIDCALEQNRNVYVLPGSMFNKMTKGNLRRINEGAQVVIDESSILYDYLF | not soluble |
| MANFPASLLILNGKSADNQPLREAITLLRDEGIQIHVRVTWEKGDAQRYVDEARRLGVETVIAGGGDGTINEVSTALIQIRDGVAPALGLLPLGTANDFATSAGIPEALDKALKLAIAGNAMEIDMAMVNDKTCFINMATGGFGTRITTETPEKLKAALGGVSYLIHGLMRMDTLTPDRCEIRGENFHWQGDALVIGIGNGRQAGGGQQLCPTALINDGLLQLRIFTGEELLPALFSTLTQSDDNPNIIDGASAWFDIHAPHEITFNLDGEPLSGQEFHIEVLPGALRCRLPPDCPLLR | soluble |
| MTDDNDNKNTELPMSASEVTAGTKIVRRAANQKPSRVVADICVVGSGAAGMSAAIEGARAGRKVVLVDSLPALGGQAVNSIIGTFCGLFSNGSDGYQFTHGIADDLLGDLGAQENALFYRRGPHTTVVYYDEVALGRWVEKAMLAAGVTVIVGAVMRNVRVAGRRVTGIDLSTRYGDVEVEANGFVDASGDAALVWQAGFACREPDDGPIYGTQMLIVENIDESKVPSREELPARMREKAGDYGLLRREGLSFVIPGRGVAAMNMTHVETPLEPLEASRKGIEGKDQADRAFAFLRNEFPACFGKARIRAYGLPGIRQTRWIVGRQQLSVDDVRAGTKFEDAIGRTAWPIELHDHGSGHHWHIFDKDHVHYVPFGSLTPQEAENIVAAGRCIDADKAALSSVRVMGPCMAMGAAAAHALDLAGSGSVHQIDIDALKWRVRDNLERTDLEHHHHHH | not soluble |
| MAVVPIRIVGDPVLHTATTPVTVAADGSLPADLAQLIATMYDTMDAANGVGLAANQIGCSLRLFVYDCAADRAMTARRRGVVINPVLETSEIPETMPDPDTDDEGCLSVPGESFPTGRAKWARVTGLDADGSPVSIEGTGLFARMLQHETGHLDGFLYLDRLIGRYARNAKRAVKSHGWGVPGLSWLPGEDPDPFGH | soluble |
| MLRSQAKNVDLTSQADSRHQQKRKQAEQLDALKNPSEPAAKKQHSKGLTELRAHISGFKIDSAKRDPLGKSRTSRRDVENLPPQKSRYVDPCPHYDYDLEEAGNPDSISDYAQGIFDYYRHREVHFRVRKYLHKHPEVDVKTRAILIDWMVEIQETFELNHETLYNAVKLTDMYLCKTKNVDKNTIQKLACVAIFIAAKYDERSPPLVDDLIYLSGDRFSRDELLAMERELFATVGYDLGSPLSYRYLRRFGRVCRVDMKTLTMGRFILETSLMVYEYAMVSQSRLAAAAFVLAMRMLDKNNEYEWNPVLEKYSGFTGEEVMPLVEHMNHILHFSKDKWAQLTSVRQKYSHEVFFHVASIPMLPDTLKVVDSHTYAPVPMLSYP | not soluble |
| MGSDKIHHHHHHMNDFTTEILKTLANKGDLNELFRVHLEKAVNTLLKTELTAFLDYEKYDRIGFNTGNSRNGSYDRTVKTEYGELHLQIPRDRNGEFKQQTVPAYRRTNDTLEETVIHLFRKGITMSEIADLIEKMYGHHYTPQTMSNITKSFTEEVTAFKGRELHDRYAAIYMDATYIPLKRKTVAKEAIHIAVGIRPDGSKEVLSYAIAPTESITIWEEILLDLQERGLKNVLLFITDGLKGMVGAISRFYPKARFQHCCVHVSRNISHKVRVDDRKEVCDDFKMVYQTSSKKVALEARGAFAEKWKTSYPKVVESILSNDHLLTFYDFPLAIRKSIYSTNLIESFNKQIKKYSHRKEQFQNEESMERFLVSSFDTYNQKFLGRSHKGFQQAEGELEQMLSQLIEN | not soluble |
| MAKPSFSCSACGASFTKWSGRCEGCGDWNTISQDAGLSAGPAKKSLGAKRGRAVTLTDLASEEAPPPRAMSGIGELDRVLGGGLVPASAILVGGDPGIGKSTLLLQAVAAFARKGLKTLYVSGEEASAQVRMRARRLGLADAPVQLAAETNLRDILTTLEAEKPGLVIIDSIQTMWADNVDSAPGSVSQVRASAHELTTFAKRTGISVIMVGHVTKDGQIAGPRVVEHMVDTVLYFEGERGHQFRILRSVKNRFGAADEIGVFEMTGAGLAEVTNPSALFLSERGAPSPGSVVFAGIEGTRPVLVELQALVAPSPHSQPRRTVVGWDGGRLAMILAVLEARCGIPFAGLDVYLNVAGGLKISEPAADLAVAAALLSAREDRALPGDTVIFGEISLSGALRPASQTENRLKEAQKLGFTSAIAPAGGKTGTLEGLTMTRPTDLVGFVGEFFGAGLEHHHHHH | not soluble |
| MSLTDEQFNPQDEEIEIEAIGVEVSCQPIELYKVLKIANAVSGGGEAKHVISEGYVFVNGDVETRKRCKVFDGDLIEFNQEFYLVICDAPVTEPESFDTQPELASSHKPTKTQKKSSANTSAKSKPSKNNKTVSGQKKAKNDKKSPQSDSKSPSGRSAIRFFEGGSHHHHHH | soluble |
| ASMRPVRLMKVFVTRRIPAEGRVALARAADCEVEQWDSDEPIPAKELERGVAGAHGLLCLLSDHVDKRILDAAGANLKVISTMSVGIDHLALDEIKKRGIRVGYTPDVLTDTTAELAVSLLLTTCRRLPEAIEEVKNGGWTSWKPLWLCGYGLTQSTVGIIGLGRIGQAIARRLKPFGVQRFLYTGRQPRPEEAAEFQAEFVSTPELAAQSDFIVVACSLTPATEGLCNKDFFQKMKETAVFINISRGDVVNQDDLYQALASGKIAAAGLDVTSPEPLPTNHPLLTLKNCVILPHIGSATHRTRNTMSLLAANNLLAGLRGEPMPSELKL | soluble |
| MKYGIVIFPPKRIQDFANSYRKRYDSHYALIPPHITLKYPFEADEEQIKKMAKELRRIAAETPPIPIKVTKFSSFYPTSNIIYLKVEPNDVLERLHEQLHSGLFAGKPEFVFVPHITIGRDLPGAEYADVYSQLKLQDVHFEETVDRFHLLYQLENGSWTVYETFIVGGKETV | soluble |
| MTFGAGHLRAAEALIEAVRKKSPEAEITHLDFGAFISKTLNTIVKNTYIELIKHTPRLYGMFYYRTSKIRPQSLIQRFINILGRKEFLDYIKGLNPDVIICTYPVIAGVLGELRFKGVIHAPVVSVVTDYGVHSQYIQRGVDLYIAGCQDVYKDLIAGGIARERIRITGIPVDPKFEEELEHHHHHH | not soluble |
| MAHHHHHHMSSVSSPPLTDAEVRELSTAEIRLNLERCSRLLSQASLLRRLRDGGEGIRHRSELFAKELERRHTVEAANGDASTRLASSTLTEALKRENEAAILSESTHNATDAAREIAQKYRDQRIDVEATVRRIYEGILSESEIQRILHSVPPRFFLTYAETCEMERQLARDARKVELQKLAAQAARLSATPQ | soluble |
| MKLDDLNLFRQVVENGSYTAASRKTLIPVATITRRIQALEDSLDIRLLNRHARKLSLTEAGQKFYDECAPILATLVNTSEYLGEECRGAAGKLKIAAPSNLTKRMIQPILNKFMLLYPDISINLTMSNQPEQLDPTDWDIIFRVGKQRDSSLIARQIGSLEDILVASPSYLEKNSEPTHAQELHKHSLLKGNPLMRWRLTNKDGESVTITDAGRFEASELNVIRMACSNGLGITLMPDIMISQYLEEGSLIRVLSDWSANPRDIYMIYNYKDHQPEKVRLFIDFVSNHIPD | not soluble |
| MSLIRVSSAVQRHAQKLIVLFSLLFGASLLMSDNGFATDIKNTNASSPVNSESTKPTKAGEVKNVVRFAKTGSFDNDTVVRLARQLAKKPYVALKDPLPESLANISYDEYRDIRFKPDSAVWKADGLPYQMQLFHRGFFFQDLIEIALVEGNQATHLSYDPNMFTAGEVLQQNLPTEDIGYSGLRVHYPLNSPSYFDELFVFQGASYFRALGKGNAYGLSARGLAIKTADPAGEEFPIFRAFWVEKPNYDTNLIVVHALLDSPSVSGAYRFSIRPGENTRMDVEAVLFPRVELSKVGLAPATSMFMHSPNGREKTDDFRPSVHDSDGLLMINGRGERLWRPLANPSTLQVSAFMDNSPQGFGLMQRERDYANYQDLEAHYEKRPSLWVEPVGNWGPGAVVLTEIPTQSEIHDNIVAFWKPAQPLAAGSEYRFSYHLNWGAQPEANPQAITVSRTASGRADIAKPTPKRLFVIDYQVQGAKPAQMPEPKVRSNAGVISNVVLRDNPANNGYRLSFEFDPGEVTLAELRAELTLQEARPVETWLYRWTLEGGSHHHHHH | soluble |
| MGSDKIHHHHHHMTRILLRNKLDECLAAWQKAGFSVLAPVKRHEMSCFGEVQKSGDMALDLVLTERTIKDQFFPQTEPLIKYRIGKQQIDSETMTPPEKKRVFFGVRPCDASGLAIDDPLFGWDYKDDYWFRRREKSVIVTIACAQADDFCMCTSVKLSPDSTKGADVMLRPLSDGSGWQVEAVSDRGTALVDTVSSLLQESSAEAAPVPQVAEKFDVEKVMEWLADKENFESQFWKDIALRCVGCGSCTFLCPTCHCFDIQDEGDTYQGIRRKNWDSCSFPLFTMHTSGHNPRNTQSTRWRQRIMHKFNYYRGKFGVNSCSGCGRCTRQCPVDMGITETLQAITNLPR | not soluble |
| SNAMKDVLAEYASRIVSAEEAVKHIKNGERVALSHAAGVPQSCVDALVQQADLFQNVEIYHMLCLGEGKYMAPEMAPHFRHITNFVGGNSRKAVEENRADFIPVFFYEVPSMIRKDILHIDVAIVQLSMPDENGYCSFGVSCDYSKPAAESAHLVIGEINRQMPYVHGDNLIHISKLDYIVMADYPIYSLAKPKIGEVEEAIGRNCAELIEDGATLQLGIGAIPDAALLFLKDKKDLGIHTEMFSDGVVELVRSGVITGKKKTLHPGKMVATFLMGSEDVYHFIDKNPDVELYPVDYVNDPRVIAQNDNMVSINSCIEIDLMGQVVSECIGSKQFSGTGGQVDYVRGAAWSKNGKSIMAIPSTAKNGTASRIVPIIAEGAAVTTLRNEVDYVVTEYGIAQLKGKSLRQRAEALIAIAHPDFREELTKHLRKRFG | soluble |
| AHHHHHHASAKWVCKICGYIYDEDAGDPDNGISPGTKFEELPDDWVCPICGAPKSEFEKLEDGSQGYSRRGNMMIILKPLIEVDLPEDFVDIIKAKLKGQTVKSGEIITVDILGKPIEFKVLYAEPSPVKVTQKTQIKFAKGNVFEVSLDFKAKDCIITDAFIVLTGESEVLILNHNFEEIRRIEFENLKKIVVKGDLVVLIGEEKVKILKLQ | soluble |
